# Data from patent US20200262877A1, “ION CHANNEL-BINDING PEPTIDES AND METHODS OF USE THEREOF” (priority 2017, published 2020).
# What was measured:
# TRPA1 = biological target: T1, TRPA1 (Homo sapiens, UniProt O75762); experiment: Ion channel panel (IonWorks Barracuda): TRPA1; assay type: cell-based; conditions: 100% = no change, <100% = inhibition
# T1 construct: host or cells: HEK293 or CHO
# Summary of the method: (§1)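 Peptides were tested in duplicate at final 20 μM and 200 nM, with concentration set by amino acid analysis, in HEPES-buffered saline. They were applied for at least 5 min to HEK293 or CHO cells transfected with each channel. Currents were expressed as % inhibition, 1-(Ipeptide/Icontrol)×100, or % activation, Ipeptide/Icontrol×100, against a channel-matched reference compound.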
# NR2A = biological target: T2, NR2A (Homo sapiens, UniProt Q12879); experiment: Ion channel panel (IonWorks Barracuda): NR2A; assay type: cell-based; conditions: 100% = no change, <100% = inhibition
# T2 construct: host or cells: HEK293 or CHO
# Summary of the method: as §1
# α3β4 = biological target: T3, α3β4 (Homo sapiens, UniProt P30926+P32297); experiment: Ion channel panel (IonWorks Barracuda): α3β4; assay type: cell-based; conditions: 100% = no change, <100% = inhibition
# T3 construct: host or cells: HEK293 or CHO
# Summary of the method: as §1
# GABA = experiment: Ion channel panel (IonWorks Barracuda): GABA; assay type: cell-based; conditions: 100% = no change, <100% = inhibition
# Summary of the method: as §1
# Kir2.1 = biological target: T4, Kir2.1 (Homo sapiens, UniProt P63252); experiment: Ion channel panel (IonWorks Barracuda): Kir2.1; assay type: cell-based; conditions: 100% = no change, <100% = inhibition
# T4 construct: host or cells: HEK293 or CHO
# Summary of the method: as §1
# Nav1.7 = biological target: T5, Nav1.7 (Homo sapiens, UniProt Q15858); experiment: cell-based; assay type: cell-based; conditions: 100% = no change; for Activity of Nav1.7 with peptide, expressed as a percentage of the reference compound: peptide at 0.2 μM; for Activity of Nav1.7 with peptide (percentage of the reference compound): peptide at 20 μM
# T5 construct: host or cells: HEK293 or CHO
# T5 sequence (Q15858 whole entry): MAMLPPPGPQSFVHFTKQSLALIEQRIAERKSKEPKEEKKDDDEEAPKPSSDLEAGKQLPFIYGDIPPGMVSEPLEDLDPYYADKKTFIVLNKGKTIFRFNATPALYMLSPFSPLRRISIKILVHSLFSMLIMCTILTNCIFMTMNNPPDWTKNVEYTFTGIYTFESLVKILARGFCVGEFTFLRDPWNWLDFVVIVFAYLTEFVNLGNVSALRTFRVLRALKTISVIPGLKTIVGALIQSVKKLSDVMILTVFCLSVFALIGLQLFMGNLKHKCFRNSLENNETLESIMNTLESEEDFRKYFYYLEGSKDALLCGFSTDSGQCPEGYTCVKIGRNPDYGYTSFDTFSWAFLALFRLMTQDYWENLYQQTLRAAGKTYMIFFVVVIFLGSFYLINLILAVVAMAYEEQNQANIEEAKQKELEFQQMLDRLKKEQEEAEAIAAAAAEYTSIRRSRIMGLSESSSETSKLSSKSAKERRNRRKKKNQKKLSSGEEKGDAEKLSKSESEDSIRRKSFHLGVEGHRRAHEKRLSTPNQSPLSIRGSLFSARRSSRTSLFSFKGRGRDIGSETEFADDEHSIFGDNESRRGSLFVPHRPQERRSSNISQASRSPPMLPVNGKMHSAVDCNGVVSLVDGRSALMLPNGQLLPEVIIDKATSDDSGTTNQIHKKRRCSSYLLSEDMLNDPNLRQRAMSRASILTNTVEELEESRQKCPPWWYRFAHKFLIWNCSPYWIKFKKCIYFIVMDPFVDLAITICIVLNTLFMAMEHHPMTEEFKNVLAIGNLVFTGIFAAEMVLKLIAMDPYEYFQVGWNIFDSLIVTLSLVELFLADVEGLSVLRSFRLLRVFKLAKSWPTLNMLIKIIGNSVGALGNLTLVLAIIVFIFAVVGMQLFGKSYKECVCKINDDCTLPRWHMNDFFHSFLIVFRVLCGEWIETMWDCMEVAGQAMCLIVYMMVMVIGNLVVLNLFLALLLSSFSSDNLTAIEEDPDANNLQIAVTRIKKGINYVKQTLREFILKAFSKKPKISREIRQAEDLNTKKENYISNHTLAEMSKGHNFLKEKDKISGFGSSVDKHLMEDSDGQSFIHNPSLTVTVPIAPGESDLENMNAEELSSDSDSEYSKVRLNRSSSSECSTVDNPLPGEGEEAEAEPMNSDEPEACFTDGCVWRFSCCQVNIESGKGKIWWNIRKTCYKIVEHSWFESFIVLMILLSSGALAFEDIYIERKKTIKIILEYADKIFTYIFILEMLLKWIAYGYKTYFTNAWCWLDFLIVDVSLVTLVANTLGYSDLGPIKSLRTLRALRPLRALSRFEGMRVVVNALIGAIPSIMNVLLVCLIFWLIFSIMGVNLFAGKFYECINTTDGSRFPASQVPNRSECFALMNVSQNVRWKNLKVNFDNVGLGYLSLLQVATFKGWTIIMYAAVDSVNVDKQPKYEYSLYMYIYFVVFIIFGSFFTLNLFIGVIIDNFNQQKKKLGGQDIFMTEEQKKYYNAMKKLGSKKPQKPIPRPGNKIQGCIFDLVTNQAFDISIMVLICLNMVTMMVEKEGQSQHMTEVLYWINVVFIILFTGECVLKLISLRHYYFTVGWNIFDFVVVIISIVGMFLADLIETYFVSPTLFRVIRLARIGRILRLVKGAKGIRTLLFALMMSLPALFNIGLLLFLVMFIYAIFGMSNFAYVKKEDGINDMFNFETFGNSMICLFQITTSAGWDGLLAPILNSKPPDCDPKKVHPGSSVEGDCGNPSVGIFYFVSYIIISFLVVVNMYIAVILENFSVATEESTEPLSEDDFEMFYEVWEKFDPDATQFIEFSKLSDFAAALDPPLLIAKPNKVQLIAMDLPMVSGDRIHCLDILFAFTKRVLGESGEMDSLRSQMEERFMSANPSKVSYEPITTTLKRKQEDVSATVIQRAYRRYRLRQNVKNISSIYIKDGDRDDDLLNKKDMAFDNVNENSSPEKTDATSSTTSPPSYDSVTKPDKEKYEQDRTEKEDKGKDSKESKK
# α4β2 = biological target: T6, α4β2 (Homo sapiens, UniProt P17787+P43681); experiment: Ion channel panel (IonWorks Barracuda): α4β2; assay type: cell-based; conditions: 100% = no change, <100% = inhibition
# T6 construct: host or cells: HEK293 or CHO
# Summary of the method: as §1
# NR2B = biological target: T7, NR2B (Homo sapiens, UniProt Q13224); experiment: Ion channel panel (IonWorks Barracuda): NR2B; assay type: cell-based; conditions: 100% = no change, <100% = inhibition
# T7 construct: host or cells: HEK293 or CHO
# Summary of the method: as §1
# Nav1.5 = Nav1.5 (Homo sapiens, UniProt Q14524); experiment: in vitro; conditions: 100% = no change; for Activity of Nav1.5 with peptide, expressed as a percentage of the reference compound: peptide at 0.2 μM; for Activity of Nav1.5 with peptide (percentage of the reference compound): peptide at 20 μM
# Chain of Nav1.5 (Q14524 whole entry): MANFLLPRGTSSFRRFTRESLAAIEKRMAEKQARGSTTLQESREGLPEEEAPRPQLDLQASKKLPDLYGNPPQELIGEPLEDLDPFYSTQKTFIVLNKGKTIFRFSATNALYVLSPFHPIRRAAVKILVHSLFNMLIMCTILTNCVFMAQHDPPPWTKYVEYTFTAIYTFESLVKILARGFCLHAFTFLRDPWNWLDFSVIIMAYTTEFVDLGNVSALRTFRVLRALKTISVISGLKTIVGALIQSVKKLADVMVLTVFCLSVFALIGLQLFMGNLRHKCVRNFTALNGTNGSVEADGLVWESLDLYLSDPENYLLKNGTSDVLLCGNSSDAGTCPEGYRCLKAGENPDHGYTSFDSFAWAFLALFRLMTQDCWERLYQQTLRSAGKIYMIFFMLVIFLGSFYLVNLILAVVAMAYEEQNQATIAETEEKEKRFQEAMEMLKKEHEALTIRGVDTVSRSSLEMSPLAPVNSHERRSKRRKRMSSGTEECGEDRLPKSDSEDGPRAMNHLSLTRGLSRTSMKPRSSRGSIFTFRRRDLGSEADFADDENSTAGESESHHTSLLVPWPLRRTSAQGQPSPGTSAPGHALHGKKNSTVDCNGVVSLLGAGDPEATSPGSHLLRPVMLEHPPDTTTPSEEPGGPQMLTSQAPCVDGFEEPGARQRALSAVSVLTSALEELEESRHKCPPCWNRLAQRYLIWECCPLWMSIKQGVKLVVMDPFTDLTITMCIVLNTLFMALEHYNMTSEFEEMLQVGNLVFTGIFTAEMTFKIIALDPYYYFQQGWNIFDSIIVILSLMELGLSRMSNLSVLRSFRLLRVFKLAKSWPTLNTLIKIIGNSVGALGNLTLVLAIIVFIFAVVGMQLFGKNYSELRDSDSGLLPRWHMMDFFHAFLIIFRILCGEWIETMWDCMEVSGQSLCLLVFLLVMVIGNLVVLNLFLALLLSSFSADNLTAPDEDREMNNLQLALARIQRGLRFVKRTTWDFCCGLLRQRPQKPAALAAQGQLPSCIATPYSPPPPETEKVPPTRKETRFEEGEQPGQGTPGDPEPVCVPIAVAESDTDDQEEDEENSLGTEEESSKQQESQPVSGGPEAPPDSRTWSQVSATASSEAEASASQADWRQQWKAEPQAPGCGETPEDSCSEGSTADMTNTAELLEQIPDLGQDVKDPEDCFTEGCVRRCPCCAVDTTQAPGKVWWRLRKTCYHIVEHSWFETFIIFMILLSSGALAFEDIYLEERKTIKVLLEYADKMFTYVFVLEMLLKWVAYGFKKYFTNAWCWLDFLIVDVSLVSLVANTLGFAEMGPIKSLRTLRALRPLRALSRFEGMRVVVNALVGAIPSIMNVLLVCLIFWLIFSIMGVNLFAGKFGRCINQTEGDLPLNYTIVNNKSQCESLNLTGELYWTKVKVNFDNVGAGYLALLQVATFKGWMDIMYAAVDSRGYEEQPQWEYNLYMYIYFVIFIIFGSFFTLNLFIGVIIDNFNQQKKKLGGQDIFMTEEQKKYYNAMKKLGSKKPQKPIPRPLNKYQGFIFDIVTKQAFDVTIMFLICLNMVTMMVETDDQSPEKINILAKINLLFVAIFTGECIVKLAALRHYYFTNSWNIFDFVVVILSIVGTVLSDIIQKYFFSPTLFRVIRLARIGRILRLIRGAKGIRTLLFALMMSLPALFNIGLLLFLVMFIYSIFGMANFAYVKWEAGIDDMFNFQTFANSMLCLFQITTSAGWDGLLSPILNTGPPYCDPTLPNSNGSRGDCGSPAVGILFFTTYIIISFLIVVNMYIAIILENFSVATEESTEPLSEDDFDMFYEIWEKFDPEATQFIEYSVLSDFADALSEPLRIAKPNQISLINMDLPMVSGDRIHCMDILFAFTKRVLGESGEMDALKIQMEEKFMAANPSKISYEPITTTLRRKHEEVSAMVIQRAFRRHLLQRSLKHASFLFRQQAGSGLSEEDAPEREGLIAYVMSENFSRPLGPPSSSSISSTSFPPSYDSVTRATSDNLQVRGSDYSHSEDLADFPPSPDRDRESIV
# Summary of the method: as §1
# hERG = hERG (Homo sapiens, UniProt Q12809); experiment: in vitro; conditions: 100% = no change, <100% = inhibition
# Summary of the method: as §1
# 5HT3a = biological target: T8, 5HT3a (Homo sapiens, UniProt P46098); experiment: Ion channel panel (IonWorks Barracuda): 5HT3a; assay type: cell-based
# T8 construct: host or cells: HEK293 or CHO
# T8 sequence (P46098 whole entry, looked up): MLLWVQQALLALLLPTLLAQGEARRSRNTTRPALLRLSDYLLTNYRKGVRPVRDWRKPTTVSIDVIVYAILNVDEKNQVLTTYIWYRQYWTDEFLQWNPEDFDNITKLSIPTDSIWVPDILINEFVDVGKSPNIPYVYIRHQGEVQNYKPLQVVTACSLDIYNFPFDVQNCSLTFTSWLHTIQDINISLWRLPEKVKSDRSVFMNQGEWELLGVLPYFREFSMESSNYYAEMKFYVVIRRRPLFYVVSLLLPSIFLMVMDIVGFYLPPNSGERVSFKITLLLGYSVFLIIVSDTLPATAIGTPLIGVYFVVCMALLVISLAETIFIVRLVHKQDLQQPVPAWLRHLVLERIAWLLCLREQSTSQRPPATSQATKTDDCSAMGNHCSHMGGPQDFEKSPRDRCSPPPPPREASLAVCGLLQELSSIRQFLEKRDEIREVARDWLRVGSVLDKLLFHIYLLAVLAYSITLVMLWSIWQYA
# Summary of the method: as §1
# TRPV1 = biological target: T9, TRPV1 (Homo sapiens, UniProt Q8NER1); experiment: Ion channel panel (IonWorks Barracuda): TRPV1; assay type: cell-based; conditions: 100% = no change, <100% = inhibition
# T9 construct: host or cells: HEK293 or CHO
# Summary of the method: as §1
# Kv1.3 = biological target: T10, Kv1.3 (Homo sapiens, UniProt P22001); experiment: cell-based; assay type: cell-based; conditions: 100% = no change, <100% = inhibition
# T10 construct: host or cells: HEK293 or CHO
# Summary of the method: as §1
# Kv1.2 = biological target: T11, Kv1.2 (Homo sapiens, UniProt P16389); experiment: cell-based; assay type: cell-based; conditions: 100% = no change, <100% = inhibition
# T11 construct: host or cells: HEK293 or CHO
# Summary of the method: as §1
# Kv1.1 = biological target: T12, Kv1.1 (Homo sapiens, UniProt Q09470); experiment: cell-based; assay type: cell-based; conditions: 100% = no change, <100% = inhibition
# T12 construct: host or cells: HEK293 or CHO
# Summary of the method: as §1
# Cav2.1 = biological target: T13, Cav2.1 (Homo sapiens, UniProt O00555); experiment: cell-based; conditions: 100% = no change, <100% = inhibition
# T13 construct: host or cells: HEK293 or CHO
# Summary of the method: as §1
# Kv2.1 = biological target: T14, Kv2.1 (Homo sapiens, UniProt Q14721); experiment: cell-based; conditions: 100% = no change, <100% = inhibition
# T14 construct: host or cells: HEK293 or CHO
# Summary of the method: as §1
# Cav2.2 = biological target: T15, Cav2.2 (Homo sapiens, UniProt Q00975); experiment: cell-based; conditions: 100% = no change, <100% = inhibition
# T15 construct: host or cells: HEK293 or CHO
# Summary of the method: as §1
# [1] = first of two Nav1.7 columns (probably TP1)
# [2] = second of two Nav1.7 columns (probably TP2)
# [3] = first of two Nav1.5 columns (probably TP1)
# [4] = second of two Nav1.5 columns (probably TP2)
# T1 sequence (O75762 whole entry): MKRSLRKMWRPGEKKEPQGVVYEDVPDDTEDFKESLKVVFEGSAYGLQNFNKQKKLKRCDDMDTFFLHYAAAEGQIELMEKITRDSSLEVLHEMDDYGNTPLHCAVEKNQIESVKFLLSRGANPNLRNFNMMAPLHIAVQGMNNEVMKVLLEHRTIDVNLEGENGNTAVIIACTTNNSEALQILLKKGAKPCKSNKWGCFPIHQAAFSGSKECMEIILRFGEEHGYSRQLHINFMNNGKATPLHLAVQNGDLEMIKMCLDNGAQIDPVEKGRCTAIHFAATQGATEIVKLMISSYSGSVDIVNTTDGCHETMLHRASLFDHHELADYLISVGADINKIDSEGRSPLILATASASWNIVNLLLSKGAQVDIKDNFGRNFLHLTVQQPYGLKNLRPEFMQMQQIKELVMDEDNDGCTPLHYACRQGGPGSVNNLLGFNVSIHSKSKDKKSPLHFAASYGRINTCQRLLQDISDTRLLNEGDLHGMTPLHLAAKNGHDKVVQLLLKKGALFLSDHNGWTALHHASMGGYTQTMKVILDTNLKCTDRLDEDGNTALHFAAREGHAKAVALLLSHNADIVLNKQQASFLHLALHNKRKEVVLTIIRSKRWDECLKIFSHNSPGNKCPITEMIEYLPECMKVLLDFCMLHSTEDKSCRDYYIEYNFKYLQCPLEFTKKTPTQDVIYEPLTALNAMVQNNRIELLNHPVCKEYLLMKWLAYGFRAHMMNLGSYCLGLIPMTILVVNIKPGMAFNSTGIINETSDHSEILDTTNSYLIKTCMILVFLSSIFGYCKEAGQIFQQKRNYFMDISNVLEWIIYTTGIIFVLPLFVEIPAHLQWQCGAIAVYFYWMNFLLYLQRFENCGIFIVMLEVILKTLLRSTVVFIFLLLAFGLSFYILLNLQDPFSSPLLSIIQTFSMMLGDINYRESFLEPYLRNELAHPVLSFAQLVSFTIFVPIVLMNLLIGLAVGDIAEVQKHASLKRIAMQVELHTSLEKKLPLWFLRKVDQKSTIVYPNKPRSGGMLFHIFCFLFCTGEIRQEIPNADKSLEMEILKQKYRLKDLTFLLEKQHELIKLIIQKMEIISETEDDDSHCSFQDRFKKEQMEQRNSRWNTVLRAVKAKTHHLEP
substance,measurement,setting,value
9 (GSGCFGYKCDYYKGCCSGYVCSPTWKWCVRPGPGR) [compound 9],"Activity of TRPA1 with peptide, expressed as a percentage of the reference compound",TRPA1; peptide at 0.2 μM,131%
same,Activity of TRPA1 with peptide (percentage of the reference compound),TRPA1; peptide at 20 μM,112%
same,"Activity of NR2A with peptide, expressed as a percentage of the reference compound",NR2A; peptide at 0.2 μM,89%
same,Activity of NR2A with peptide (percentage of the reference compound),NR2A; peptide at 20 μM,87%
same,"Activity of a3b4 with peptide, expressed as a percentage of the reference compound",α3β4; peptide at 0.2 μM,105%
same,Activity of a3b4 with peptide (percentage of the reference compound),α3β4; peptide at 20 μM,103%
same,"Activity of GABA with peptide, expressed as a percentage of the reference compound",GABA; peptide at 0.2 μM,99%
same,Activity of GABA with peptide (percentage of the reference compound),GABA; peptide at 20 μM,98%
same,"Activity of Kir2.1 with peptide, expressed as a percentage of the reference compound",Kir2.1; peptide at 0.2 μM,105%
same,Activity of Kir2.1 with peptide (percentage of the reference compound),Kir2.1; peptide at 20 μM,103%
same,"Activity of Nav1.7 with peptide, expressed as a percentage of the reference compound",Nav1.7; [1],108%
same,"Activity of Nav1.7 with peptide, expressed as a percentage of the reference compound",Nav1.7; [2],110%
same,Activity of Nav1.7 with peptide (percentage of the reference compound),Nav1.7; [1],94%
same,Activity of Nav1.7 with peptide (percentage of the reference compound),Nav1.7; [2],114%
same,"Activity of a4b2 with peptide, expressed as a percentage of the reference compound",α4β2; peptide at 0.2 μM,96%
same,Activity of a4b2 with peptide (percentage of the reference compound),α4β2; peptide at 20 μM,81%
same,"Activity of NR2B with peptide, expressed as a percentage of the reference compound",NR2B; peptide at 0.2 μM,77%
same,Activity of NR2B with peptide (percentage of the reference compound),NR2B; peptide at 20 μM,85%
same,"Activity of Nav1.5 with peptide, expressed as a percentage of the reference compound",Nav1.5; [3],104%
same,"Activity of Nav1.5 with peptide, expressed as a percentage of the reference compound",Nav1.5; [4],103%
same,Activity of Nav1.5 with peptide (percentage of the reference compound),Nav1.5; [3],109%
same,Activity of Nav1.5 with peptide (percentage of the reference compound),Nav1.5; [4],110%
same,"Activity of hERG with peptide, expressed as a percentage of the reference compound",hERG; peptide at 0.2 μM,104%
same,Activity of hERG with peptide (percentage of the reference compound),hERG; peptide at 20 μM,98%
same,Activity of 5HT3a with peptide (percentage of the reference compound),5HT3a,73%
same,"Activity of 5HT3a with peptide, expressed as a percentage of the reference compound",5HT3a,107%
same,"Activity of TRPV1 with peptide, expressed as a percentage of the reference compound",TRPV1; peptide at 0.2 μM,112%
same,Activity of TRPV1 with peptide (percentage of the reference compound),TRPV1; peptide at 20 μM,79%
same,"Activity of Kv1.3 with peptide, expressed as a percentage of the reference compound",Kv1.3; peptide at 0.2 μM,107%
same,Activity of Kv1.3 with peptide (percentage of the reference compound),Kv1.3; peptide at 20 μM,89%
same,"Activity of Kv1.2 with peptide, expressed as a percentage of the reference compound",Kv1.2; peptide at 0.2 μM,120%
same,Activity of Kv1.2 with peptide (percentage of the reference compound),Kv1.2; peptide at 20 μM,104%
same,"Activity of Kv1.1 with peptide, expressed as a percentage of the reference compound",Kv1.1; peptide at 0.2 μM,103%
same,Activity of Kv1.1 with peptide (percentage of the reference compound),Kv1.1; peptide at 20 μM,97%
same,"Activity of Cav2.1 with peptide, expressed as a percentage of the reference compound",Cav2.1; peptide at 0.2 μM,111%
same,Activity of Cav2.1 with peptide (percentage of the reference compound),Cav2.1; peptide at 20 μM,108%
same,"Activity of Kv2.1 with peptide, expressed as a percentage of the reference compound",Kv2.1; peptide at 0.2 μM,112%
same,Activity of Kv2.1 with peptide (percentage of the reference compound),Kv2.1; peptide at 20 μM,99%
same,"Activity of Cav2.2 with peptide, expressed as a percentage of the reference compound",Cav2.2; peptide at 0.2 μM,109%
same,Activity of Cav2.2 with peptide (percentage of the reference compound),Cav2.2; peptide at 20 μM,102%
